Measured values published in patent US20080160035A1 (Regeneron, published 2008).
Numbering of substitutions follows the chain as printed. Blank lines part the entries; values can stand above or below the binder they belong to.

How the values were obtained:
[1] = target: T1, hIL-4R on cells (STAT6-transfected HEK293, TF1, TF1/A12) (human, UniProt P24394 26-825); assay: cell-based or functional assay
T1 sequence (looked up): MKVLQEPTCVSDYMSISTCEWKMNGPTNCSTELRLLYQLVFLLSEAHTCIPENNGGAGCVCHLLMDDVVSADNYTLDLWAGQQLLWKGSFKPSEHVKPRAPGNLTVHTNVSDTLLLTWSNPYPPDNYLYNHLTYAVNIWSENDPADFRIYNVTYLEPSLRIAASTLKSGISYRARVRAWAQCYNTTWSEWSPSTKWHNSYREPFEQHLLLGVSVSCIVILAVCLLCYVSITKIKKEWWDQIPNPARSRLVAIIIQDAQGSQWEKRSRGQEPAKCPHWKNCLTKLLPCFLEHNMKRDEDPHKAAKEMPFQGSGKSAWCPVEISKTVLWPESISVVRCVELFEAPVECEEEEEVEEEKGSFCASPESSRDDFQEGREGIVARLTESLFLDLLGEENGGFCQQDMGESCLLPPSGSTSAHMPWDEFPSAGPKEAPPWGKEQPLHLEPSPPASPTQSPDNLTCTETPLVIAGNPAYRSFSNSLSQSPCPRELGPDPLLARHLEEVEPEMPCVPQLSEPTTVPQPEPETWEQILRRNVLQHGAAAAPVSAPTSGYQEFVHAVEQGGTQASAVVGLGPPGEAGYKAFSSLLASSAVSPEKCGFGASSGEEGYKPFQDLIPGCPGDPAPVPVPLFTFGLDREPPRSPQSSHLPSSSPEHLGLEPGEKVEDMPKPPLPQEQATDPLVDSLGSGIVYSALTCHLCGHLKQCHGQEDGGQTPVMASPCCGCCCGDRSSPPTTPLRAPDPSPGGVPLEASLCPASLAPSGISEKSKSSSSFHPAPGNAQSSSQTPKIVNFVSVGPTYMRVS

[2] = target: T1, hIL-4R on cells (STAT6-transfected …); assay: cell-based or functional assay; remark: listed apart in the source
mouse IL-4R = target: T2, mouse IL-4R (mouse, UniProt P16382 26-233, limits assumed); assay: binding affinity test of Example 2 (method not restated)
T2 sequence (looked up): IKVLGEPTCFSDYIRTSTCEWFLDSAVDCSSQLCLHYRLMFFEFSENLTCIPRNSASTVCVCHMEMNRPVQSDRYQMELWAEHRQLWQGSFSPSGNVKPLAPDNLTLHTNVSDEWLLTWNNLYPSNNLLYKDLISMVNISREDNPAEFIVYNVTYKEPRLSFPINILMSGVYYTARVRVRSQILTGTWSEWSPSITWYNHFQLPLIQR

[3] = target: T3, monomeric hIL-4R (R&D Systems) (human, UniProt P24394 26-231); assay: SPR (BIAcore 2000); antibody captured, monomeric hIL-4R injected
T3 construct: Bought (R&D Systems); also called hIL-4R monomer
T3 sequence: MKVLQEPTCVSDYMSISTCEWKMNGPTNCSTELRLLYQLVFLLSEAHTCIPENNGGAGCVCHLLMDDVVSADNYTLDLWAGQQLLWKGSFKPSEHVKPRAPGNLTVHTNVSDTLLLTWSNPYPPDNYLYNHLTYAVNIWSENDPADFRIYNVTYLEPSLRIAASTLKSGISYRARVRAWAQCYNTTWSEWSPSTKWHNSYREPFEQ

dimeric hIL-4R-hFc [4] = target: T4, dimeric hIL-4R-hFc (human, UniProt P24394 26-232); assay: SPR (BIAcore 2000); antibody captured, dimeric hIL-4R-hFc injected
T4 construct: also called hIL-4R-Fc; not shown: human Fc (hFc)
T4 sequence: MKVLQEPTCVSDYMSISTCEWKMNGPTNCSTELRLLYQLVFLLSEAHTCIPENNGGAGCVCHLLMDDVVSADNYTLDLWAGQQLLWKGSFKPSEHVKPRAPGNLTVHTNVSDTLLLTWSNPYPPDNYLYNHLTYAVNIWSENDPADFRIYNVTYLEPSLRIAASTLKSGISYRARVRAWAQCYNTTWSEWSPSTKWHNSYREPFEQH

dimeric hIL-4R-hFc [5] = target: T4, dimeric hIL-4R-hFc; assay: ELISA; antibody titrated against 25 pM hIL-4R-Fc, free receptor caught on hIL-4 plate
dimeric hIL-4R-hFc [6] = target: T4, dimeric hIL-4R-hFc; assay: SPR; reduction of hIL-4 (50 nM) binding to captured hIL-4R-hFc after antibody; competitor hIL-4
From the text: Purified hIL-4R-hFc molecules were captured by goat anti-human IgG polyclonal antibody immobilized on CM-5 to a density of 260 RU, to prepare a receptor-coated surface.

hIL-4R = target: T5, hIL-4R (human, UniProt P24394 26-232); assay: screen of hybridoma conditioned media
T5 construct: also called human IL-4 receptor; antigen
T5 sequence (looked up): T4 sequence

STAT6 Bioassay IC50 (HEK293 STAT6 luciferase, 10 pM hIL-4) [1]: 3.4 nM
TF1/A12 Bioassay IC50 (proliferation, 20 pM hIL-4) [1]: 8.2 nM
STAT6 Bioassay IC50 (HEK293 STAT6 luciferase, 40 pM hIL-13) [2]: 1.1 nM
binding result (mouse IL-4R): no binding
Kd [3]: 1.01 nM
T1/2 monomeric [3]: 0.217 h
Kd (dimeric hIL-4R-hFc [4]): 0.052 nM
T1/2 dimeric (dimeric hIL-4R-hFc [4]): 6.1 h
IC50 (dimeric hIL-4R-hFc [5]): 0.059 nM
% Inhibition (BIAcore) (dimeric hIL-4R-hFc [6]): 96%
B1: VAB 7B9-3 (antibody, V domains shown)
VH: QVQLVQSGAEVKKPGASVKVSCKDSAYTFNRYGISWVRQAPGQGLEWMGWISAYTGNTVYAQKLQGRVTMTTDNSTSTAYMELRSLRSDDTAVYYCARDKSIFGVVRGFDYWGQGTLVTVSS
VL: EIVMTQSPVTLSLSPGERATLPCRASQSVSSSLAWYQQKAGQSPRLLIYGASTRATGIPARFSGSGSGTEFTLTISNLQSEDFAVYYCQQYNNWPLTFGGGTKVEIK
notes: Apparently tested with mouse constant region (anti-mouse IgG capture/detection)

binding result (hIL-4R): binds
B2: VAB 13A1-6 (antibody, V domains shown)
VH: EVQLVESGGGLVQPGRSLRLSCAASGFTFDNYAMHWVRQAPGKGLEWVSGIRWNSGSIGYADSVKGRFTISRDNAKNSLYLQMNSLRAEDTALYYCAKEGGYSGYRPGPFFDYWGQGTLVTVSS
VL: B1 VL with V9A, L13V, P22S, S30N, S31Y, S32N, Q38H, A40P, S43A, N77S

STAT6 Bioassay IC50 (HEK293 STAT6 luciferase, 10 pM hIL-4) [1]: 0.36 nM
TF1 Bioassay IC50 (proliferation, 50 pM hIL-4) [1]: 0.58 nM
STAT6 Bioassay IC50 (HEK293 STAT6 luciferase, 40 pM hIL-13) [2]: 0.26 nM
TF1 Bioassay IC50 (proliferation, 150 pM hIL-13) [2]: 1.9 nM
binding result (mouse IL-4R): no binding
Kd [3]: 0.09 nM
T1/2 monomeric [3]: 6 h
Kd (dimeric hIL-4R-hFc [4]): 0.007 nM
T1/2 dimeric (dimeric hIL-4R-hFc [4]): 46 h
IC50 (dimeric hIL-4R-hFc [5]): 0.059 nM
% Inhibition (BIAcore) (dimeric hIL-4R-hFc [6]): 94%
B3: VAK10G12-5 (antibody, V domains shown)
VH: QVQLVESGGGVVQPGGSLRLSCAASGFTFSSYGMHWVRQAPGRGLEWVAVLSYDGSKEFYADSVKVRFTVSRDNSKNTLYLQMSSLRVEDTAIYFCAKEGRTGNWFDPWGQGTLVAVSS
VL: DIQMTQSPSSLSASVGDRVTITCRASQAINNFLAWFQQKPGKTPKSLIFATSSLQSGVPSRFSGSESGTDFTLTISSLQPEDFATYYCQQYNSHPWTFGQGTKVEIK
notes: as for B1
